Source: publication PMC8100514

Target: β-tubulin, endogenous in HeLa cells (human (endogenous in HeLa)) (UniProt P07437)
Experiment: native gel or EMSA; soluble native extracts of HeLa cells treated with 5 uM colchicine for 60 min (30 ug) on 6% non-denaturing PAGE, western blot with anti-TBCA; level of the complex relative to control cells (100%)

Sequence of UniProt P07437 (P07437 whole entry): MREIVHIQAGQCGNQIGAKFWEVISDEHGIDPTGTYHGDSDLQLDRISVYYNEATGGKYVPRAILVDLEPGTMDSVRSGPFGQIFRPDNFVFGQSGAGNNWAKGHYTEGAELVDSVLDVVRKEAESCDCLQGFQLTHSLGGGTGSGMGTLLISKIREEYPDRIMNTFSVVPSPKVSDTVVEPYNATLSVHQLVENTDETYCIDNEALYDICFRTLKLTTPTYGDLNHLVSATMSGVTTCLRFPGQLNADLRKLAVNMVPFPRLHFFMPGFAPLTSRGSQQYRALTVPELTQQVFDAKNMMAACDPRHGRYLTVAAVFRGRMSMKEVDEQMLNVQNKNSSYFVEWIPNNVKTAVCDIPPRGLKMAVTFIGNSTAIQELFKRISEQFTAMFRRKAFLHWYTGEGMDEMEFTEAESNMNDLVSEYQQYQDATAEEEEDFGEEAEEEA

B1: tubulin cofactor A (TBCA), endogenous in HeLa cells (natural protein)
chain: MADPRVRQIKIKTGVVKRLVKEKVMYEKEAKQQEEKIEKMRAEDGENYDIKKQAEILQESRMMIPDCQRRLEAAYLDLQRILENEKDLEEAEEYKEARLVLDSVKLEA
level of the TBCA/β-tubulin complex, percent of control cells: 18%
